Test: yeast display, Sf9 membrane polyspecificity reagent, FACS + sequencing; frameworks hold sequencing errors
Method in brief: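 Genes from sorted yeast were amplified by colony PCR, read by MiSeq 2 × 250 sequencing and filtered on CDR length. These cells carried a synthetic nanobody library in Saccharomyces cerevisiae BJ5465 and were sorted by FACS into low and high (top ~1%) gates on anti-HA and streptavidin fluorescence. Polyreactivity is labelled according to the gate of origin.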

Sequence | polyreactivity (PSR sort gate)
QVQLVESGGGLVQAGGSLRLSCAASGSTFYINAMGWYRQAPGKERELVAAITSGGSTNYADSVKGRFTISRDNAKNTVYLQMNSLKPEDTAVYYCAKVSYYPWRYDYWGQGTQVTVSS | low polyreactivity
QVQLVESGGGLVQAGGSLRLSCADSGLIFGRNAMGWYRQAPGKERELVAAITSGGSTYYADSVKGRFTISRDNAKNTVYLQRNSLKPEDTAVYYCAADVVDLYLLDYWGQGTQVTVSS | low polyreactivity
QVQLVESGGGLVQAGGSLRLICAASGNTFYYYAMGWYRQAPGKERELVASITSTARTYYADSVKGRFTISRDNAKNTGYLQMNSLKPEDTAVYYCNAKEHYATRSDSCGQGTQVTVSS | high polyreactivity
QVQLVESGGGLDQAGGSLRLSCAASGSIFAYYVMGWYRQAKGKERELVAAITSVGSTNYADSVKGRFTISRDNAKNTVYLQMNSLKPEESAVFYCAADQYQARYYYWGQGTQVTVSS | low polyreactivity
QVQHVESGGGLVQAGGSLRLSCAASGSIFRKNAMGWYRQAPGKERELVAAISSGGGGTYYADSVKGRFTISRDNAKNTVYLQMNSLKPEDTAVFYCNKREGKGGNTKYDYWGQGTQVTVSS | low polyreactivity
QVQLVESGGGLVQAGGSLRLSCAASGRIFYYYAMGWYRQAPGKERELVAAITWNGTSTYYADSVKGRFTISRDNAKNTVYLQMNSLKPEDTAVYYCAAEGWVGAWWYVLDVRYDYWGQGTQVTVSS | low polyreactivity
QVQLVESGGGLVQAGGRLRLSCADSGFTFDANAMGWYRQAPGKEPELVAAISLSDGSTYYADSVKGRFTISRDNAKNTVYLQMNSLKPEDTAVYYCNAERFGSGLAWLLFDYWGQGTQVTVSS | low polyreactivity
QVQLVESGGGLVQAGGSLRLSCAASGSTFAGNAMGWYRQAPGKERELFAAITFSGGRTDYADSVKGRFTISRDNAKNTVYLQMNSLKPEDTAVYYCAAPADVTVHYLNYYWGQGTQVTVSS | low polyreactivity
QVQHVESGGGLVQAGGSLRLSCAASGFIFRRYAMGWYRQAPGKERELVAAISWRSGSTYYADSVKGRFTISRDNAKNTVYLQMNSLKPEDTAVYYCAAKDQATYQLNYWGQGTQVTVSS | high polyreactivity
QVQLVESGGGLVQSGGSLRLSCAASGSTVTQYVMGWYRQAPGKERELVAAISDSGSTYYADSVKGRFTISRDKAKNTVYLQMNSLKPEDTAVYYCAAAAPYHGLLYEGDYGGQGTQVTVSS | low polyreactivity
QVQLVESGGGLVQAGGSLRLSCAASGSTFKPYAMGWYRQAPGKERELVAAISRGTRTYADSVKGRFTITRDNAKNTVYLQMNSLKPEDTAVYYCAAEWRWIFGYHYEYDYWGQGTQVTVSS | low polyreactivity
QVLLVESGGGLVQAGGSLRLSCSASGNAMGWYRQAPGKERELVAAITRRGGSTYYADSVKGSFTISRDNAKNTVYLQMNSLKPEDTAVYYCADDNPSYNLWYGYWGQGTQVTVSS | low polyreactivity
QVQLVESGGGLVQAGGSLRLSCAASGGTFSTYAMGWYRQAPGKERELVAAISSTGGSTYYADSVKGRFTISRDNAKNTVYLQMNSLKPEDTAVYYCAAYYSRGWLLYWDEMYYWGQGTQVTVSS | high polyreactivity
QVQLVESGGGLVQAGGSLRLSCAASGSIFPWNAMGWYRQAPGKERELVAAISFSSGGSTYYADSVKGRFTISRDNAKNTVYLQMNSLKPEDPAVYYCAARTKLWVLGNYYYWGQGTQVTVSS | high polyreactivity
QVQLVESGGGLVQAGGSLRLSCAASGLTFRFYTMGWYRQAPGKERELVAAISTSGGSTYYADSVKGRFTISRDNAKNTVYLQMNSLKPEDTAVYYCNAQVWFYYFQSGYDYWGQGTQVTVSS | low polyreactivity
QVQLVETGGGLVQARGSLRLSSAASGFIFDENAMGWYRQAPGKERELVAAITSGGGSTYYADSVKGRFTISRDNAKNTVYFQMNSQNPEDTAVYYCNAVPTQHDEFDYWGQGTQVTVSS | low polyreactivity
QVQLVESGGGLVQAGGSLRLSCAASGSIFAYNAMGWYRQAPGKERELVAAITRSGVNTYYADSVKGRFTISRDNAKNTVYLQMNRLKPEDTAVYYCNAVFWGLQKWPQ | low polyreactivity
QVQLQESSGGLVQAGGSLRMGCAASGTIFHFHIMGWYRPAPGKEREFVAAISYGTSTYYADSVKGRFTISRDNAKNTVYLQMNSQKPEDTAVYYCAVYDYLEVYCWYWGQGTQVNVSS | low polyreactivity
QVQLVESGGGLVQAGGSLRLSCAASGRTLVWYTMGWYRQAPGKEREFVAVITTGSGSTYYADSVKGRFTISRDNAKNTVYLQMNSLKPEDTAVYYCNAGYGGYSYHYPPYEYWGQGTLVTVSS | low polyreactivity
QVLLVESGGGLVQAGGSLRLSCAASGFTFGVYAMRWYRQAPGKERELVAAISTTVGSTYYADSVKGRFTISRDNAKNTVYLQMNSLKPEDTAVYYCHYPYDYWGQATQVTVSS | low polyreactivity
QVQLVESGGGLVQAGGSLRLSCAASGRIFYRNAMGWYRQAPGKERELVAAIRGGDNTYYADSVKGRFTISRDNAKNTVYLQMNSLKPEDTAVYYCAARSYRLDSYYWGQGTQVTVSS | high polyreactivity
QVQLVESGGGLGQAGGSLRLSCAASGFIFTFYAMGWNRQAPGKERELVAAISWSGGSTYYADSVKGRFTISHDNAKNTVYLQMNSLKPEDTAVYSCNAQHARGYYYWGQGTQVTVSS | low polyreactivity

Sequence | polyreactivity (PSR sort gate)
QVQLVESGGGLVQAGGSLRLSCAASGSIFRDNAMGWYLQAPGKERELVASISRRGGSTYYADSVKGRFTISRDNAKNTVYLQMNSLKPEDTAVYYCAARAVGGTVPTRYDYWGQGTQVTVSS | high polyreactivity
QVQLVESGGGLVQAGGSLRLSCAASGSTFQYYTMGWYRQAPGKERELVAAITRSGGRTYYADSVKGRFTISRDNAKNTVYLQMNSLKPEDTAVYYCAALDSRYSGDDYDSWGQGTQVTVSS | high polyreactivity
QVQLVESGGGLVQAGGSLRLSCAPSGRTLYNYAMGWTRQAPGKERELVASITWSGGSTYYADSVKGRFTISRDNAKNTVYLQMTSLKPEDTAVYYCAAESSPGTFVRYGYRRYYYWGQGTQVTVSS | low polyreactivity
QVQLVESGGGLVQAGGSLRLSCAASGSTFEYYAMGWYRQAPGKERELVAAISTAGSTYYADSVKGRFTISRDNAKNTVYLQMNSLKQEDTAVYYCAVDPSPRSYYNYYWGQGTQVTVSS | high polyreactivity
QVQLVESGGGLVQAGGSLRLSCAASGRIFKYYDMGWYRQAPGKERELVARISSGGGRTYYADSVKGRFKISRDNAKNTVYLQMNSLKPEDTAVYYCAADPPASYHTWYGYWGQGTQVTVSS | high polyreactivity
QVQLVESGGGLVQAGGSLRLSSAASGFILEPNAMGWYRQAPGKERELVAAITTSGGTYYADSVKGRFTISRDNAKNTVYLQMNSLKPEDTAVYYCNAVSTDSWAYHGDYWGQGTQVTVSS | low polyreactivity
QVQLVESGGGLVQAGGSLRLSCAASGFTFTYYAMGWYRQAPGKERELVATISSGGSTYYADSVKGRFTISRDNAKNTVYLQMNSLKPEDTAVYYCAAERGAITPLVYPPEFDYWGHGTQVTVSS | low polyreactivity
QVQLVESGGGLVQAGGSLRLSCAASGNIFARYAMGWYRQATGKERDLVSAISRSGGSTYYADSVKGRFTISRDNAKNSVYLQMKCLKPEDTAVYYCNAKSYGVLYWFAYDYWGQGTQVTVSS | high polyreactivity
QVQLVESGGGLVQAGGSLRLSCAASGNILVSYTMGWSRQAPGKDTELVAAINSGGNTNYADSVKGRFTISRDNAKNTVYLQMNSLKPEDTAVYYCNAYTDSLWVYPFWIYRDYDDWGHGTQVTVSS | low polyreactivity
QVQLVESGGGLVQAGGSLRLSCAASGSIFTFNAMGWYRQAPGKERELVAAINWSGTRTYYADSVKGRFTISRDNAKNTVYLQMNSLKPEDTAVYYCNTRPSKRYGYDYWGQGTQVTVSS | high polyreactivity
QVQLVESGGGLVQAGGSLRLSCAASGRTFGRYVMGWYIQAPGKERELVAAIRWSGGTTYYADSVKGRFTISRDNAKNTVYLQMNSLKPEDTAVYYCAARWGPYYGGVRYGYWGQGTQVTVSS | high polyreactivity
QVQLVESGGGLVQAGGSLRLSCAASGSTFWSNTMGWYRQAPGKERELVASITTSGGRTYYADSVKGRFTISRDNAKNTVYLQMNSLKPEDTAVYYCAAGGRVRRRYGYWGQGTQVTVSS | high polyreactivity
QVQLVESGGGLVQAGGSLRLSCAASGFIFGSNAMGWYRQAPGKERELVAAISSRGGRTYYADSVKGRFTISRDNAKNTVYLQMNSLKPEDTAVYYCATVRYRALRYDYWGQGTQVTVSS | high polyreactivity
QVHLVESGGGLVQAGGSLRLSCAASGYIFTGYAMGCYRQAPGKERELVATINTDGDSTYYADSVKGRFTISRDNAKNTVYLQMNSLKPEDTAVYYCNKRLTQAYDDQVGYDYWGQGTQVTVSS | low polyreactivity
QVQLVESGGGLVQAGGSLRLSCAASGYTLNTYAMGWYRQAPGKERELVAAITWSGGRTYYADSVKGRFTISRDNAKNTVYLQMNSLKPEDTAVYYCNAVWRRSTGDSGYWGQGTQVTVSS | high polyreactivity
QVQLVESGGGLVQAGGSLRLSCAASGYTFTGYAMGWYRQAPGKERELVAAITSIGGSTYYADSVKGRFTISRDNAKNTVYLQMNSLKPEDTAVYYCAAEGDYVYDMDYWGQGTQVTVSS | low polyreactivity
QVQLVESGGGLVQSGGSLRLSCAASGSTIFRYAMGWSRQAPGKERELVAAISWSGASTYYADSVKGRFTISRDNAKNPVYLHMNSQKPEDTAVYYCAARSRWYDAAGYPKYYYWGHGTQVTVSS | high polyreactivity
QVQLEESGGGLVQAGGSLRLSCSASGSIFRGYAMGWYRQAPGKERELVAAITSGGRTNYADSVKGRFTISRDNAKITVYLQMNSLKPEVTAVYYWIAGFRFYAYSRIAGEDYWGQGSQVTVSS | low polyreactivity
QVQLVESGGGLVQAGGSLRLSCAASGSIFNWYAMGWYRQAPGNERELVADISWSDGDTYYADSVKGRFSISRDNAKNTDYLQMNSLKPEDTAVYYSAAASNLYYPYYVLGDPYDYWGQGTQVTVSS | low polyreactivity
QVQLVESGGGLVQAAGSLRLSCAASGITFSWYAMGWYRQAPGNERALVASITQSGGSTYYADSVKGRFTISRDNAKNTVYLQMTCLKPEVTAVYYCSKRYLKPVYCYVRNYGSDYWGQGTQVTVSS | low polyreactivity
QVQLVESGGGLVQAGGSLRLSCAASGLIIYYYAMGWYRQAPGKERELVAAISINGGSTYYADSVKGRFTISRDNAKNTVYLQMNSLIPEDTAVYYCAAFRRRMEYWGQGTQVTVSS | high polyreactivity

Reference: the nanobody polyreactivity screen of Harvey et al. (2022)
